Article PMC6245935, “Fructose-1,6-bisphosphate aldolase encoded by a core gene of Mycoplasma hyopneumoniae contributes to host cell adhesion” (Veterinary Research, 2018)

Molecular target: fibronectin (UniProt P02751 32-2477)
Test: SPR; BIAcore X100 Plus; fibronectin amine-coupled to CM5 chip (2868 RU); rFBA analyte 0-100 ug/mL in HBS-EP (10 mM HEPES, 150 mM NaCl, 3 mM EDTA, 0.05% P20), 30 uL/min, 180 s association, 1000 s dissociation, 20 °C
Conditions: both partners purified

fibronectin, sequence (P02751 32-2477): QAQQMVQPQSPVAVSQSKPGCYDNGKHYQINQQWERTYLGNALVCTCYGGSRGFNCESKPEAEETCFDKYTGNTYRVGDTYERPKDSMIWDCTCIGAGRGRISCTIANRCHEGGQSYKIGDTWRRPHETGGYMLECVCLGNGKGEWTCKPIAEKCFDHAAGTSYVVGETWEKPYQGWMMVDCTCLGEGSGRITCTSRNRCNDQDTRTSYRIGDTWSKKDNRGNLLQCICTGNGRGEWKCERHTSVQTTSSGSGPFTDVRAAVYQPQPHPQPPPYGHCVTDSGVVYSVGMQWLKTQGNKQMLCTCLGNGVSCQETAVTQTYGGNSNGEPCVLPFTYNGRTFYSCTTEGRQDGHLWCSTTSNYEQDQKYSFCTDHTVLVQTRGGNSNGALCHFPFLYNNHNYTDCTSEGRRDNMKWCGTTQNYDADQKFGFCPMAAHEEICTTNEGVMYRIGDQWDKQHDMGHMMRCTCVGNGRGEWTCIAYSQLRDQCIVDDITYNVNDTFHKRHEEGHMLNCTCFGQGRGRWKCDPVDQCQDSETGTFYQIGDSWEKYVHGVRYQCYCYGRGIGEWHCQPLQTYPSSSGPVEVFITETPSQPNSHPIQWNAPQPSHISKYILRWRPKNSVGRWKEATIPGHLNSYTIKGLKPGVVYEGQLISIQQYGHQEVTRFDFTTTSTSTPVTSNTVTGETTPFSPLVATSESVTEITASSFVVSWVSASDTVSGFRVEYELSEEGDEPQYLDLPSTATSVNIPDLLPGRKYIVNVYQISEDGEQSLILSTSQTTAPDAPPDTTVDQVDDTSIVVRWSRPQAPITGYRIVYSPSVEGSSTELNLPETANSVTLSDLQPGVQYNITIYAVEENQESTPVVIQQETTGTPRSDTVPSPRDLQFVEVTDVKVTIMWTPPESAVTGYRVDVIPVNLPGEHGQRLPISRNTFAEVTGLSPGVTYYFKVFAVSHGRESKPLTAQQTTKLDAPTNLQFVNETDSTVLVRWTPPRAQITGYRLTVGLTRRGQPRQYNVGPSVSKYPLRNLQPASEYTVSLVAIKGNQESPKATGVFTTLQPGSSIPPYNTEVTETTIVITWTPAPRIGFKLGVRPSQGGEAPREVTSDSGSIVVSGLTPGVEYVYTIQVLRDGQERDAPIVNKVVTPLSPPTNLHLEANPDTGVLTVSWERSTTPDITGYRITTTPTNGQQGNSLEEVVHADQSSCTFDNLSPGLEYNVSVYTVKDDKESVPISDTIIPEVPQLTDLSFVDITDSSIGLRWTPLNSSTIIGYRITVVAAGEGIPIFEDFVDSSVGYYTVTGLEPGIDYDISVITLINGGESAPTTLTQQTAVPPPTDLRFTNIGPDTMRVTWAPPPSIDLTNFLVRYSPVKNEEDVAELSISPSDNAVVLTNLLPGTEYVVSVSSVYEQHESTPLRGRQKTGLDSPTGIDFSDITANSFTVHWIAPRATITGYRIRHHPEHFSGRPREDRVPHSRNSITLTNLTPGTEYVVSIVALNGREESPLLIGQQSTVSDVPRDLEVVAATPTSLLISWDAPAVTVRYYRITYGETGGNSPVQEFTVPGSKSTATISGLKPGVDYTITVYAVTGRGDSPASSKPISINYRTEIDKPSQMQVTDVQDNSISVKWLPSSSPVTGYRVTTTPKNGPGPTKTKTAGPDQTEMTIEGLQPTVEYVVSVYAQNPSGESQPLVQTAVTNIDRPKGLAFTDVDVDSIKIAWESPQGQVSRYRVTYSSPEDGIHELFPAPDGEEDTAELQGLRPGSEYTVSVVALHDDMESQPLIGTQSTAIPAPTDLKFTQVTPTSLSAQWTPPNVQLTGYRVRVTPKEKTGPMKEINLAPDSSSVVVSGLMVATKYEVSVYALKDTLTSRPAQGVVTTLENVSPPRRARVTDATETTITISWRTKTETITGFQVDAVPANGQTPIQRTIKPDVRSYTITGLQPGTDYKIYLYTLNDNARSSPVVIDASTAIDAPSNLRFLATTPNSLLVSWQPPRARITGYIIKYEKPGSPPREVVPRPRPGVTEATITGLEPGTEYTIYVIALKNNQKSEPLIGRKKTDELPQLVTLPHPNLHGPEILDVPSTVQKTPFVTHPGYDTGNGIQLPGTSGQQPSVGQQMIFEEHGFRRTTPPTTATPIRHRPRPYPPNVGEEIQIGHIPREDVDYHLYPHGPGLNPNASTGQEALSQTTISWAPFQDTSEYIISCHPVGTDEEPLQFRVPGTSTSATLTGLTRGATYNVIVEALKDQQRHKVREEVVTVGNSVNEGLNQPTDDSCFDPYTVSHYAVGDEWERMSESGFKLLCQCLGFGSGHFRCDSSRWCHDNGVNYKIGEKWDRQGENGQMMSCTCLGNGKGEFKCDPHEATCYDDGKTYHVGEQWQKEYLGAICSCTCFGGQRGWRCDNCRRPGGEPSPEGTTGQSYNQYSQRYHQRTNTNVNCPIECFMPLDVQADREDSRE

B1: recombinant fructose-1,6-bisphosphate aldolase (rFBA) of Mycoplasma hyopneumoniae strain 168 (enzyme)
chain: MKTIISIAIDFLKNRESAHFSDIFLEVQTSLMSKWENQLPNLSTDKILTLKRGELYKLLSIDGNFVPLGDNYWTLRSDLNALVFFFFFFLKVFDCKKKKKKYRKGKMQLVNTKEMLEKALKNNYAIPHININNLEWTKAALLAAQAKKSPLIIGTSERVLTYMGGLKTIYNLVTNLIDYFKITVPVALHLDHGTYLTCKEALKNGYTSVMYDGSKEKFELNLERTEEIVRLANKVNATVEAEVGQIGGEEDGVIGNGEIANPENAKKITETGITCLAAGIGNIHGIYPPDWKSLNFEILEKISKVTKIPLVLHGGSGIPKDQIQKAIKLGIAKINVNTELQQANAAAISEFVLSGKVKQGKNFDPRKLLAPGTDAIQLLIEEKITEFGSANQA
notes: Fructose-1,6-bisphosphate aldolase (FBA) of Mycoplasma hyopneumoniae strain 168, full-length fba gene, locus MHP168_014, GenBank ADQ90241.1; The gene was cloned by site-directed mutation and overlap extension PCR 'due to the existence of rare codons'; also called fructose-bisphosphate aldolase; source: Escherichia coli BL21 (DE3), purified by Ni-chelating chromatography
B1 was tested, and the Kd was 468 ± 23 nM and the kon was 3470 ± 580 M⁻¹ s⁻¹.
